From paper PMC6212594, “Structural insights into the π-π-π stacking mechanism and DNA-binding activity of the YEATS domain” (Nature Communications, 2018)
Where two headings read alike, the source gives them in different places. *1 amine or outer side, *2 acyl side, *3 side chain or, on linkers, in order; H or OH if unused. Where no end group is shown, it is not given here. The star is where a group is joined. Suc = O=C(CCC(=O)[*:2])[*:1]; Crotonyl(E) = C/C=C/C(=O)*; Propionyl = CCC(=O)*; Butyryl = CCCC(=O)*

Columns and labels:
Taf14-YEATS G82A [1] = molecular target: T1, Taf14-YEATS G82A (Saccharomyces cerevisiae, UniProt P35189, G82A); test: biochemical; type: binding, yeast
Protocol: Kd value was calculated by a nonlinear least-squares analysis in Kaleidagraph using the1 Δδ=ΔδmaxL+P+Kd-L+P+Kd^2-4PL/2P where [L] is concentration of free acetyllysine, [P] is concentration of the protein, Δδ is the observed chemical shift change, and Δδmax is the normalized chemical shift change at saturation. Normalized chemical shift changes were calculated using the equation2 Δδ=ΔδH^2+ΔδN/5^2 where Δδ is the change in chemical shift in parts per million (ppm).

Taf14-YEATS G82A [2] = molecular target: T1, Taf14-YEATS G82A; test: biochemical
AF9-YEATS Y78W [3] = molecular target: T2, AF9-YEATS Y78W (Homo sapiens, UniProt P42568, Y78W); test: Tryptophan fluorescence binding, AF9-YEATS Y78W; details: 20 mM Tris pH 7.5, 500 mM NaCl, 2 mM BME, 25 °C, 1–2 µM protein, peptides aa 5–13, average of three separate experiments ± SD, read-out: Binding affinity Kd
T2 sequence (P42568 1-138 Y78W): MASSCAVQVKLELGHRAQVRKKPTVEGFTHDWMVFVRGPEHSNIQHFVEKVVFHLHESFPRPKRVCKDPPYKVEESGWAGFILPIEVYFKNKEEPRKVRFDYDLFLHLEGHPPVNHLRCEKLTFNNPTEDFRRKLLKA

Taf14-YEATS (1-137) = molecular target: T3, Taf14-YEATS (1-137) (yeast, UniProt P35189 1-137); test: crystal structure; Taf14-YEATS (1-137) with 5 (wild type) or 10 (G82A) molar equivalents of peptide; sitting drop, 18 °C, PEG 600, citric acid pH 6.0; details: both partners purified
T3 construct: Taf14, yeast, YEATS domain, aa 1-137 (construct used for crystallization); GST tag probably cleaved for crystallization (surmise); also called wild-type Taf14-YEATS; source: E. coli BL21 (DE3) RIL, purified (glutathione Sepharose 4B, size exclusion)
T3 sequence (looked up): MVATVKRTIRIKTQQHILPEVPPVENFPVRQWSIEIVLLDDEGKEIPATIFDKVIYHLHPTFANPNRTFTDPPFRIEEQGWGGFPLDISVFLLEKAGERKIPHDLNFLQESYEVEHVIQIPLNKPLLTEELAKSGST

AF9-YEATS Y78W/A79G = molecular target: T4, AF9-YEATS Y78W/A79G (human, UniProt P42568 1-138, Y78W | A79G)
T4 sequence: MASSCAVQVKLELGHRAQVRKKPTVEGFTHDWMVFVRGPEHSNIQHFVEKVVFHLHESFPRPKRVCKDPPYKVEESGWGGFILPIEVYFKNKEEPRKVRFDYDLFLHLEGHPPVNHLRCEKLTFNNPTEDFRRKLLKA

AF9-YEATS Y78W [4] = molecular target: T5, AF9-YEATS Y78W (human, UniProt P42568 1-138, Y78W); test: crystal structure; AF9-YEATS (wild type or Y78W) at 6 mg/ml with two molar equivalents of peptide; sitting drop, 4 °C; details: both partners purified
T5 construct: AF9, human, YEATS domain, aa 1-138 with Y78W; also called Y78W mutant; source: E. coli BL21 (DE3) RIL, purified
T5 sequence (looked up): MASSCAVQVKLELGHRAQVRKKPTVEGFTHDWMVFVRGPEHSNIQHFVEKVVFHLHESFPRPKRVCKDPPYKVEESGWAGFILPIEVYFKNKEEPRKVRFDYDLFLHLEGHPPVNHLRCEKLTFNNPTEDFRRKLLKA

Taf14-YEATS W81Y = Taf14-YEATS W81Y (yeast, UniProt P35189 1-137, W81Y)
[5] = molecular target: T6, AF9-YEATS domain (aa 1-138) (human, UniProt P42568 1-138)
T6 chain: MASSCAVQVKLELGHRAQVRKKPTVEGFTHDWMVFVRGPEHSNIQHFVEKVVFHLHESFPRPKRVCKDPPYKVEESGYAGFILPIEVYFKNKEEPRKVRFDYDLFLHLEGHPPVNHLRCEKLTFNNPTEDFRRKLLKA

Taf14-YEATS G82A (1-137) = molecular target: T7, Taf14-YEATS G82A (1-137) (yeast, UniProt P35189 1-137, G82A); test: crystal structure; Taf14-YEATS (1-137) with 5 (wild type) or 10 (G82A) molar equivalents of peptide; sitting drop, 18 °C, PEG 600, citric acid pH 6.0; details: both partners purified
T7 construct: Taf14, yeast, YEATS domain, aa 1-137 with G82A (construct used for crystallization); Also crystallized in the apo state; also called G82A mutant; source: E. coli BL21 (DE3) RIL, purified
T7 sequence (looked up): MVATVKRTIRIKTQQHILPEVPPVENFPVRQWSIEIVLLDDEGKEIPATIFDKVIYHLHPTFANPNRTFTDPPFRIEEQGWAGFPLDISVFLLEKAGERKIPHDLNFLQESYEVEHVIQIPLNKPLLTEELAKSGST

Taf14 YEATS domain [6] = molecular target: T8, Taf14 YEATS domain (yeast, UniProt P35189 1-137)
T8 chain: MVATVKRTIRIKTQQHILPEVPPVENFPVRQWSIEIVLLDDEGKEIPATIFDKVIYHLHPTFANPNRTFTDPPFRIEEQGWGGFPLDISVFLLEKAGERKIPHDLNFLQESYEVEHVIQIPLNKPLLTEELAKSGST

[7] = molecular target: T9, AF9-YEATS domain (aa 1-138) (human, UniProt P42568 1-138); test: other fluorescence titration; tryptophan fluorescence; 1-2 µM wild-type or mutated AF9 YEATS domain in 20 mM Tris pH 7.5, 500 mM NaCl, 2 mM BME, 25 °C, increasing concentrations of H3 peptide (aa 5-13); details: both partners purified
T9 construct: AF9, human, YEATS domain, aa 1-138, in pET28b; His tag cleaved with thrombin; 15N-labelled for NMR; also called WT AF9-YEATS; source: E. coli BL21 (DE3) RIL, purified (nickel-NTA, ion exchange / size exclusion)
T9 sequence (looked up): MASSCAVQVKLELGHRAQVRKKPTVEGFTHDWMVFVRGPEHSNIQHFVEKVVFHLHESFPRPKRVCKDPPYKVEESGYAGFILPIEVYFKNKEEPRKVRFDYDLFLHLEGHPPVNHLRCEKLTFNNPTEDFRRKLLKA

Taf14 YEATS domain [8] = molecular target: T8, Taf14 YEATS domain; test: other fluorescence titration; tryptophan fluorescence; 1-2 µM wild-type or mutated Taf14 YEATS domain in PBS pH 7.4, 25 °C, increasing concentrations of H3 peptide (aa 5-13); excitation 295 or 280 nm
AF9-YEATS Y78W [9] = molecular target: T10, AF9-YEATS Y78W (human, UniProt P42568 1-138, Y78W)
T10 sequence: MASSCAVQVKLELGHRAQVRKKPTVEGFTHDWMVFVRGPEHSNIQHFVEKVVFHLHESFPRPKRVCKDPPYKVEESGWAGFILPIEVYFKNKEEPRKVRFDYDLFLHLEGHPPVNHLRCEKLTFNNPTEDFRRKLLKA

AF9-YEATS Y78W [10] = molecular target: T5, AF9-YEATS Y78W; test: other fluorescence titration; tryptophan fluorescence; 1-2 µM wild-type or mutated AF9 YEATS domain in 20 mM Tris pH 7.5, 500 mM NaCl, 2 mM BME, 25 °C, increasing concentrations of H3 peptide (aa 5-13); details: both partners purified
H3K9acyl = details: cited from earlier work
Excerpt: To assess how AF9-YEATS interacts with both H3K9acyl and DNA, we reconstituted H3K9acyl-containing nucleosome core particles (H3K9cr-NCPs and H3K9ac-NCP) and examined binding of AF9-YEATS to these NCPs and to unmodified NCP in EMSA.

[11] = molecular target: T9, AF9-YEATS domain (aa 1-138); test: crystal structure; AF9-YEATS (wild type or Y78W) at 6 mg/ml with two molar equivalents of peptide; sitting drop, 4 °C; details: both partners purified
Taf14 YEATS domain [12] = molecular target: T8, Taf14 YEATS domain; test: NMR

CC(=O)NCCCC[C@H](NC(=O)[C@H](CCCNC(=N)N)NC(=O)[C@H](C)NC(=O)[C@@H](NC(=O)[C@@H](N)CCC(N)=O)[C@@H](C)O)C(=O)N[C@@H](CO)C(=O)N[C@H](C(=O)NCC(=O)NCC(=O)O)[C@@H](C)O [H3K9ac]
Kd (Taf14-YEATS G82A [1]): > 10000 µM

C/C=C/C(=O)NCCCC[C@H](NC(=O)[C@H](CCCNC(=N)N)NC(=O)[C@H](C)NC(=O)[C@@H](NC(=O)[C@@H](N)CCC(N)=O)[C@@H](C)O)C(=O)N[C@@H](CO)C(=O)N[C@H](C(=O)NCC(=O)NCC(=O)O)[C@@H](C)O [H3K9cr]
Kd (Taf14-YEATS G82A [2]): 124 µM | Selectivity of G82A mutant for H3K9cr (over H3K9ac) (Taf14-YEATS G82A [1]; from NMR titration data for H3K9ac, author's response in peer review file): greater than 80 -fold | Kd (AF9-YEATS Y78W [3]): 2 µM

B1: histone H3K9pr (5-13) peptide (peptide, UniProt P68431 6-14, looked up)
peptide: QTARK(Propionyl)STGG
notes: histone H3, residues 5-13, K9 propionylated; also called propionylated H3K9pr peptide
binding result (Taf14-YEATS (1-137)): binds

QTARK(Ac)STGG [histone H3K9ac peptide (limits not stated)]
Kd (AF9-YEATS Y78W/A79G): 2.6 µM

B2: histone H3K9cr (5-14) peptide (peptide, UniProt P68431 6-15, looked up)
peptide: QTARK(Crotonyl(E))STGGK
notes: histone H3, residues 5-14, K9 crotonylated
binding result (AF9-YEATS Y78W [4]): binds

QTARK(Crotonyl(E))STGG [histone H3K9cr peptide (limits not stated)]
Kd (Taf14-YEATS W81Y): 9.2 µM | Kd (AF9-YEATS Y78W/A79G): 2.7 µM

B3: histone H3K9cr peptide (aa 5-13) (peptide, UniProt P68431 6-14, looked up)
peptide: QTARK(Crotonyl(E))STGG
notes: histone H3, residues 5-13, K9 crotonylated; also called H3K9cr (5-13); source: bought: Synpeptide
Kd [5]: 3.7 µM | binding result (Taf14-YEATS G82A (1-137)): binds | Kd (Taf14 YEATS domain [6]): 9 µM | binding result [7]: binds

B4: histone H3K9bu peptide (aa 5-13) (peptide, UniProt P68431 6-14, looked up)
peptide: QTARK(Butyryl)STGG
notes: histone H3, residues 5-13, K9 butyrylated; also called H3K9bu (5-13); source: bought: Synpeptide
Kd (Taf14-YEATS W81Y): 40 µM | Kd [5]: 3.9 µM | binding result (Taf14-YEATS (1-137)): binds | Kd (Taf14 YEATS domain [6]): 28 µM | binding result [7]: binds | fold reduction of binding against H3K9cr (Taf14 YEATS domain [8]): 3 fold

B5: histone H3K9ac peptide (aa 5-13) (peptide, UniProt P68431 6-14, looked up)
peptide: QTARK(Ac)STGG
notes: histone H3, residues 5-13, K9 acetylated; source: bought: Synpeptide
Kd (AF9-YEATS Y78W [9]): 2.3 µM | Kd [5]: 4.3 µM | Kd (Taf14 YEATS domain [6]): 130 µM | Kd (AF9-YEATS Y78W [10]): 2 µM | binding result [7]: binds

B6: AF9-YEATS F59A/Y78A: AF9-YEATS mutant defective in H3K9acyl binding (protein)
chain: MASSCAVQVKLELGHRAQVRKKPTVEGFTHDWMVFVRGPEHSNIQHFVEKVVFHLHESAPRPKRVCKDPPYKVEESGAAGFILPIEVYFKNKEEPRKVRFDYDLFLHLEGHPPVNHLRCEKLTFNNPTEDFRRKLLKA
modifications: left off: His tag, end not stated, cleaved
H3K9acyl binding of mutant (H3K9acyl): defective in H3K9acyl binding

B7: histone H3K9bu (1-19) peptide (peptide, UniProt P68431 2-20, looked up)
peptide: ARTKQTARKSTGGKAPRKQ
modifications: butyryllysine at K9
notes: histone H3, residues 1-19, K9 butyrylated
binding result [11]: binds

QTARK(Suc)STGG [histone H3K9su peptide]
Kd (Taf14 YEATS domain [12]): > 700 µM
